Measurements reported in patent US20220213198A1, “METHOD OF TREATMENT” (The Council of the Queensland Institute of Medical Research, priority 2019, published 2022).
Entries after “also recorded” stand apart in the source; their conditions may differ. Blank lines part the entries; values can stand above or below the molecule they belong to.

How the values were obtained:
[1] = system: MR1 / MAIT cells; conditions: cited from earlier work; for effect on MAIT cell activation: background statement
[2] = target: T1, surface MR1 on mouse tumor cell lines (Mus musculus, UniProt Q8HWB0); conditions: stated as property of the ligand; cited from earlier work
T1 construct: endogenous in cells

[3] = system: B16F10 melanoma cells; test: B16F10 experimental lung metastasis model; format: in vivo, mouse
Description: FIG. 2. […] (A) The schematic and timeline of expanding MAIT cells from splenocytes derived from C57BL/6 WT mice with IL-2 and 5-OP-RU, for sorting and adoptive transfer into tumor-bearing mice. (B, C) Groups of WT or MR1^−/− or Rag2cγ^−/− mice (n=5-6/group) were injected i.v. with (B) 1×10^5 or (C) 1×10^4 B16F10 melanoma cells. In some groups, sorted MAIT or T conventional cells (cT) (non-MAIT αβ^+ T cells) (2×10^5 cells/mouse) from C57BL/6 (B) WT or (C) TCRδ^−/− mice were i.v. injected into the indicated groups of mice one day before tumor inoculation. (C) One group of mice received i.v injection of media alone as a control. (B, C) On day 14 relative to tumor cell inoculation, lungs were harvested and the metastatic burden was quantified by counting colonies on the lung surface. Data presented as mean±SEM. (D) B16F10 or LWT1 melanoma cells were stimulated in vitro with DMSO or 5-OP-RU (100 nM) for 4 hours before cell surface MR1 expression was determined by flow cytometry. Groups of C57BL/6 WT or MR1^−/− mice (n=5-6/group) were i.v. injected with (E) 1×10^5 B16F10 or (F) 5×10^5 LWT1 cells melanoma cells pulsed with DMSO or 5-OP-RU (100 nM, 4 hours). Fourteen days later relative to tumor cell inoculation, lungs were harvested and the metastatic burden was quantified by counting colonies on the lung surface. Data presented as mean±SEM. Experiments performed once for (B, C, F) and three times for (D, E) with one representative experiment shown. Significant differences between groups as indicated by crossbars were determined using a one-way ANOVA followed by Tukey's post-hoc test (B, E, F), *p<0.05, **p<0.01, ****p<0.0001
FIG. 5. […] (A) Generation of three independent B16F10 cell lines knocked out for MR1 using three different MR1 sgRNA. […] Empty vector transfected B16F10 cells were used as a positive control. (B, C) Groups of C57BL/6 WT, MR1^−/− or Rag2cγ^−/− mice (n=5-6/group) were i.v. injected with either (B) 1×10^5 B16F10 vector control cells or the indicated clone of B16F10 cells lacking MR1 (sgR1, sgR2, sgR3) or (C) 1×10^4 B16F10-MR1^KO cells (sgR3 clone). On day 14 relative to tumor cell inoculation, lungs were harvested and the metastatic burden was quantified by counting colonies on the lung surface. Data presented as mean±SEM. (D) Re-expression of GFP or GFP-MR1 expressing vector into B16F10-MR1^KO (sgR3 clone). MR1 surface expressions of these cells stimulated with or without 5-OP-RU were assessed by flow cytometry. (E) Groups of C57BL/6 WT mice (n=6/group) were i.v. injected with 1×10^5 B16F10-MR1^KO (sgR3 clone) transfected with empty GFP-expressing vector or MR1-GFP-expressing vector. (F) Groups of C57BL/6 WT or MR1^−/− mice were i.v. injected with parental B16F10 cells treated with vehicle (dd H2O) or AC-6-FP (10 μM, 18 hours). On day 14 relative to tumor cell injection, lungs were harvested and the metastatic burden was quantified by counting colonies on the lung surface. Data presented as mean±SEM. Experiments performed twice for (A-E) and once for (F). Significant differences between groups as indicated by crossbars were determined by a one-way ANOVA followed by Tukey's post-hoc test (A, F), or a Mann-Whitney test (C, E), *p<0.05, **p<0.01, ****p<0.0001.
FIG. 6. […] Groups of C57BL/6 WT or MR1^−/− mice (n=5-6/group) were i.v. injected with (A, B) 1×10^5 B16F10, (C) 1×10^5 parental B16F10 or 2×10^5 B16F10-MR1^KO (sgR3 clone) melanoma cells and (D) 5×10^5 LWT1 melanoma cells or s.c injected with (E) 1×10^6 MCA1956 fibrosarcoma or (F) 1×10^6 SM1WT1 melanoma cells on day 0.

[4] = target: human MR1 (Homo sapiens, UniProt Q95460); test: Anti-MR1 reactivity with human MR1; format: binding; conditions: flow cytometry antibody
Excerpt: (§1) MR1 mRNA transcripts are present in different tissues and cell lines from mice and humans. […] In contrast, whether mouse tumor cell lines express MR1 has not previously been examined. […] Basally, the level of MR1 was almost undetectable on the surface of all tumor cell lines examined (FIG. 2D). […] The kinetics of MR1 upregulation on B16F10 cells was similar to what was previously reported for human C1R cells (B-cell lymphoblastoid cell line) (McWilliam et al., 2016). […] Next, the impact of up-regulation of MR1 on B16F10 or LWT1 prior to i.v injection to WT or MR1−/− mice on the number of lung metastases was assessed.

[5] = target: mouse MR1 (Mus musculus, UniProt Q8HWB0); test: Anti-MR1 reactivity with mouse MR1; format: binding; conditions: flow cytometry antibody
Excerpt: as §1

[6] = target: T2, human MR1 (MHC class I-related protein 1) (human, UniProt Q95460 23-341); test: flow cytometry; human cell lines with or without 5-OP-RU (data not shown)
T2 construct: The assays used endogenous MR1 of human cell lines (flow cytometry) and of FFPE tumor sections (IHC); no signal peptide limits are stated
T2 sequence (Q95460 23-341 limits assumed): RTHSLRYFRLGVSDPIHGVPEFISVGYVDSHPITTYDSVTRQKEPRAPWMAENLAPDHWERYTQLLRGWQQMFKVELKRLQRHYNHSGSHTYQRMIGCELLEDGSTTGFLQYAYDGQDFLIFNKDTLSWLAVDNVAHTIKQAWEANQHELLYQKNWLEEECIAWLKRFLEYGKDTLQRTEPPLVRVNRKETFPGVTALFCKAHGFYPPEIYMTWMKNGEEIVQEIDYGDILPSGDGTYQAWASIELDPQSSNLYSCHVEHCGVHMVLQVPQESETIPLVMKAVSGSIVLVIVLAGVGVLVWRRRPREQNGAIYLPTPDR

[7] = target: T3, mouse MR1 (MHC class I-related protein 1) (mouse, UniProt Q8HWB0 19-341); test: flow cytometry on mouse tumor cell lines with or without 5-OP-RU
T3 construct: whole, on cells; also called surface MR1
T3 sequence (Q8HWB0 19-341): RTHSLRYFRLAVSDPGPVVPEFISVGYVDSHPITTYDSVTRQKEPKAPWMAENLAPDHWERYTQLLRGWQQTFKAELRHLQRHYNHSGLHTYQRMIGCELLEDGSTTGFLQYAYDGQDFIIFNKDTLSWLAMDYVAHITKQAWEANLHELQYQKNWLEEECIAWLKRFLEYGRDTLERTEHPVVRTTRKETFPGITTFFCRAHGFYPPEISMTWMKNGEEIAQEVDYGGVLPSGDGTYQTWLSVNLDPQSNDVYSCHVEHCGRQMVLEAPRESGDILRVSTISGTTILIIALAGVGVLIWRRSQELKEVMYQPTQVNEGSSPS
Excerpt: as §1

Molecule: CC(=O)Nc1nc2ncc(C=O)nc2c(=O)[nH]1 [AC-6-FP, acetyl 6-formylpterin]
- effect on MAIT cell activation [1]: does not activate MAIT cells; also recorded: inhibit MAIT cell activation
- MR1 expression [2]: upregulates MR1
- number of lung metastases ([3]; WT mice injected with B16F10 pre-treated 10 μM 18 hours, vs vehicle-treated, day 14): decrease in metastases numbers
- number of lung metastases ([3]; WT mice injected with B16F10 pre-treated 10 μM 18 hours, vs vehicle-treated, day 14, listed as Ac-6-FP): dramatically reduced

Molecule: Nc1nc2ncc(C=O)nc2c(=O)[nH]1 [6-FP, 6-formylpterin]
- effect on MAIT cell activation [1]: inhibit MAIT cell activation

B1: 26.5: anti-MR1 blocking antibody from hybridoma clone 26.5, IgG2a isotype; heavy chain SEQ ID NO: 4, light chain SEQ ID NO: 8 (antibody, listed as Mus musculus, V domains shown)
VH: MEWSRVFIFLLSITAGVHSQVQLQQSGTELVRPGTSVKVSCKASGYAFSNYLIEWIKQRPGQGLEWIGVINPGSGGISYNEKFKGKATLTADKSSSTAYMQLSSLTSEDSAVYFCARWGYLYYYTMDHWGQGTSVTVSS
VL: MKLPVRLLVLMFWIPASSSDVLMTQTPLSLPVSLGDQASISCRSSQSIVQGSGNTFLDWYLQKPGQSPKVLIYKVSNRFSGVPARFSGSGSGTDFTLKISRVEAEDLGVYYCFQGSHVPYTFGGGTKLEIK
- blocking of MAIT cell interaction with MR1 ([1]; stated as known): block MAIT cells from interacting with MR1
- reactivity with human MR1 [4]: cross-reacts with both mouse and human MR1
- reactivity with mouse MR1 [5]: cross-reacts with both mouse and human MR1
- number of lung metastases ([3]; B16F10 tumor-bearing MR1-/- mice, antibody vs cIg): no further decrease
- B16F10 lung metastases ([3]; WT mice, 250 μg/mouse i.p. days -1, 0, 3 and 7, vs cIg, day 14): effectively suppressed lung metastases
- suppression of B16F10 lung metastases, three vs four doses ([3]; WT mice, 250 μg/mouse i.p., days -1, 0, 3 vs days -1, 0, 3 and 7): more effective when four doses

- binding result [6]: binds
- binding result [7]: binds
B2: anti-MR1 antibody 26.5 (antibody, V domains shown)
VH: QVQLQQSGTELVRPGTSVKVSCKASGYAFSNYLIEWIKQRPGQGLEWIGVINPGSGGISYNEKFKGKATLTADKSSSTAYMQLSSLTSEDSAVYFCARWGYLYYYTMDHWGQGTSVTVSS
VL: DVLMTQTPLSLPVSLGDQASISCRSSQSIVQGSGNTFLDWYLQKPGQSPKVLIYKVSNRFSGVPARFSGSGSGTDFTLKISRVEAEDLGVYYCFQGSHVPYTFGGGTKLEIK
